From patent publication US20060183194A1 (Genentech, published 2006)
Ends that are not written are not given here.

Experiments:
[1] = target: T1, ErbB-4 receptor-Ig fusion (human, UniProt Q15303 26-651); assay: phage ELISA; ratio to wild-type HRG-β1 177-244 phage
T1 construct: extracellular domain;range 224-C-terminus; also called ErbB-4-Ig; not shown: human IgG heavy chain constant region from His224 (hinge) on
T1 sequence: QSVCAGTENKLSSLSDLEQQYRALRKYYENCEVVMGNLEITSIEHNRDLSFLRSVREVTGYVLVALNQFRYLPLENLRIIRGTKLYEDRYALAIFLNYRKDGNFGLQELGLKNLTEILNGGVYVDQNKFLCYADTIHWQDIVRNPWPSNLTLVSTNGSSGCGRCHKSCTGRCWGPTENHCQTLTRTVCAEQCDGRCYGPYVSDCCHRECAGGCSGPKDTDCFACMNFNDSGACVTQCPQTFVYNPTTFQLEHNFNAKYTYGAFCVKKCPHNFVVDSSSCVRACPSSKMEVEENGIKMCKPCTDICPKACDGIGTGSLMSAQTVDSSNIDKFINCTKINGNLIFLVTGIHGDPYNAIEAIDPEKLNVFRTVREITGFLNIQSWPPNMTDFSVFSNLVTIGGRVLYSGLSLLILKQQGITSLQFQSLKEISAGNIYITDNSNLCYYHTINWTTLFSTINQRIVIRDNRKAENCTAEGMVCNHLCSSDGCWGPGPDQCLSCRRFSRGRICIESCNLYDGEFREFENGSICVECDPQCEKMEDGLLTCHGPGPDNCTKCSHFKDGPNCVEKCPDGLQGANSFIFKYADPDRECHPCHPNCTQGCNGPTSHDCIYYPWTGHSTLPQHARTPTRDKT

[2] = target: T2, ErbB-3 receptor-Ig fusion (human, UniProt P21860 20-643); assay: as above
T2 construct: extracellular domain;range 224-C-terminus; also called ErbB-3-Ig; 3/3 homodimer; not shown: human IgG heavy chain constant region from His224 (hinge) on

[3] = target: T2, ErbB-3 receptor-Ig fusion; assay: phage ELISA; soluble ErbB-3-Ig as competitor
[4] = target: T1, ErbB-4 receptor-Ig fusion; assay: phage ELISA; soluble ErbB-4-Ig as competitor
[5] = target: T1, ErbB-4 receptor-Ig fusion; assay: displacement of 125I-HRG from plate-bound ErbB-4-Ig
Excerpt: For the ErbB-4 binding assays, PBS containing 1% BSA was used as the blocking and binding buffers, and the wash buffer was PBS containing 0.05% Tween 20™.

[6] = target: T3, ErbB-2/3 receptor-Ig fusion (human, UniProt P04626 23-652; P21860 20-643); assay: phage ELISA; soluble ErbB-2/3-Ig competes phage off plate-bound ErbB-2/3-Ig
T3 construct: extracellular domain;range 224-C-terminus; Co-expressed in HEK-293; also called ErbB-2/3-Ig; 2/3-heterodimer; not shown: human IgG heavy chain constant region from His224 (hinge) on

[7] = target: T1, ErbB-4 receptor-Ig fusion; assay: phage ELISA; soluble ErbB-4-Ig as competitor; remark: listed apart in the source
Description: (§1) Microtiter plates (Nunc Maxisorp™ 96-well plates, Inter Med, Denmark) for phage ELISA were prepared as follows. The wells were precoated overnight with 0.5 μg of rabbit anti-human IgG (Fc gamma fragment-specific) antibodies (Jackson Immunoresearch, West Grove, Pa.) in 100 μL 50 mM NaCO₃ (pH 9.6). The wells were blocked for 30 minutes (min) with 200 μL PBS containing 0.1% bovine serum albumin (BSA) and rinsed with wash buffer (PBS containing 0.05% Tween 20™). The wells were then coated with 0.1 μg ErbB-2/3-Ig in binding buffer (PBS, 0.1% BSA, 0.05% Tween 20™) for 1 h, and washed again.
(§2) Serial dilutions of soluble ErbB-2/3-Ig (competitor) and a concentration of phage predetermined to give 60% saturation (without competitor) were added to the wells in 100 μL binding buffer. Following incubation for 2 h at room temperature, plates were washed extensively and treated with a 1:900 dilution of anti-M13 horseradish peroxidase conjugate (Pharmacia, Piscataway, N.J.) for 20 min. The amount of phage binding was determined by assaying horseradish peroxidase activity using o-phenylenediamine dihydrochloride) substrate solution (Sigma Chemical Company, St. Louis, Mo.). EC₅₀ values were calculated as the concentration of soluble ErbB-2/3-Ig required to compete half of the phage off the plate. […]

[8] = target: T2, ErbB-3 receptor-Ig fusion; assay: phage ELISA; soluble ErbB-3-Ig as competitor; remark: listed apart in the source
Description: as §1, §2

[9] = target: ErbB-2/3 heterodimers on MCF7 breast cancer carcinoma cells (UniProt P04626 23-1255; P21860 20-1342, limits assumed); assay: cell-based or functional assay
[10] = target: T2, ErbB-3 receptor-Ig fusion; assay: displacement of 125I-HRG from plate-bound ErbB-3-Ig
[11] = target: T3, ErbB-2/3 receptor-Ig fusion; assay: told with the 125I-HRG displacement assay; reference ErbB-3-Ig homodimer
[12] = target: T3, ErbB-2/3 receptor-Ig fusion; assay: displacement of 125I-HRG from plate-bound ErbB-2/3-Ig
[13] = target: T2, ErbB-3 receptor-Ig fusion; assay: phage ELISA; soluble ErbB-3-Ig as competitor; remark: listed apart in the source
Description: as §1
(§3) Serial dilutions of soluble ErbB-2/3-Ig (competitor) and a concentration of phage predetermined to give 60% saturation (without competitor) were added to the wells in 100 μL binding buffer. Following incubation for 2 h at room temperature, plates were washed extensively and treated with a 1:900 dilution of anti-M13 horseradish peroxidase conjugate (Pharmacia, Piscataway, N.J.) for 20 min. The amount of phage binding was determined by assaying horseradish peroxidase activity using o-phenylenediamine dihydrochloride) substrate solution (Sigma Chemical Company, St. Louis, Mo.). EC₅₀ values were calculated as the concentration of soluble ErbB-2/3-Ig required to compete half of the phage off the plate.

[14] = target: T1, ErbB-4 receptor-Ig fusion; assay: phage ELISA; soluble ErbB-4-Ig as competitor; remark: listed apart in the source
Description: as §1, §3

T2 sequence (P21860 other isoform, or with tags, fused parts or gaps): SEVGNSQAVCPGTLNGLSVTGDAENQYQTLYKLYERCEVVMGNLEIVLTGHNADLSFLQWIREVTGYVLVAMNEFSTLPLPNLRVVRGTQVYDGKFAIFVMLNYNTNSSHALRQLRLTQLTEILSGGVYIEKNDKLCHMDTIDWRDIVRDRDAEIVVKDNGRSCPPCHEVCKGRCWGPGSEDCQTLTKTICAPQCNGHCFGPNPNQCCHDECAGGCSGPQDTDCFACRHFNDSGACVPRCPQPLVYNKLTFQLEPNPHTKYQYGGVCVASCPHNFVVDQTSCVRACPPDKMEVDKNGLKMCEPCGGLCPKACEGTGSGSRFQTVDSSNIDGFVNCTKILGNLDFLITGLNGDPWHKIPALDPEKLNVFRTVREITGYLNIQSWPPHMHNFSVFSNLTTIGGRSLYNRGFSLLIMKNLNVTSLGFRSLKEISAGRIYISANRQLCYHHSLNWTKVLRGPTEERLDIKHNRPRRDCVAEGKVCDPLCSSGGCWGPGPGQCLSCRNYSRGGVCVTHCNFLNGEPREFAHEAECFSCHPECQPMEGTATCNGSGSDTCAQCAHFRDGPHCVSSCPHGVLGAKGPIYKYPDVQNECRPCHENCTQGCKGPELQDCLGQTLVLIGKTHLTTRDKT

## HRG-β1 177-244 H178W with 228-231 replaced by Met, on phage (from UniProt P69168 265-424) (ligand)
[1]
  EC50 Mut/WT: 1.7
[2]
  EC50 Mut/WT: 1.2

## HRG-β1 177-244 F216A on phage (from UniProt P69168 265-424) (ligand)
[3]
  EC50: 500 nM

## HRG-β1 177-244 H178L with 228-231 replaced by Met, on phage (from UniProt P69168 265-424) (ligand)
[1]
  EC50 Mut/WT: 1.7
[2]
  EC50 Mut/WT: 6.4

## HRG-β1 177-244 F189A on phage (from UniProt P69168 265-424) (ligand)
[4]
  EC50: 106 nM
[3]
  EC50: 892 nM

## SHLVKCGEEREGFCVNGGECYRVKTYGYLMCKCPNEFTGDRCQHYVIAS (ligand, also: three disulfide bonds, pairing not given here, also called B3+D4+E2+I2) [soluble HRG-β1 EGF combination variant HRG73]
[5]
  EC50: 0.31 nM

B1: HRG8: wild-type HRG-β1 EGF (HRG-β1 177-228) displayed on phage, linker to pIII 323 (ligand, phage M13)
chain: SHLVKCAEKEKTFCVNGGECFMVKDLSNPSRYLCKCPNEFTGDRCQNYVMASGGGSGGGSGGGSNSQMAQVGDGDNSPLMNNFRQYLPSLPQSVECRPFVFSAGKPYEFSIDCDKINLFRGVFAFLLYVATFMYVFSTFANILRNKES
notes: range 323-C-terminus; Monovalent phage display; also called pHRG8-g3; wild-type HRG-β1 EGF phage
[6]
  EC50: 11 nM
[7]
  EC50: 163 nM
[8]
  EC50: 135 nM

B2: soluble wild-type HRG-β1 EGF (HRG8, HRG-β1 177-228) (ligand)
chain: SHLVKCAEKEKTFCVNGGECFMVKDLSNPSRYLCKCPNEFTGDRCQNYVMAS
notes: also called HRG8 (WT)
[5]
  EC50: 1.5 nM
[9]
  KIRA EC50 (nM): tyrosine phosphorylation of the ErbB-2 receptor on MCF7 cells: 0.212 nM
[10]
  EC50: 2.3 nM
[11]
  fold higher affinity than for the 3/3 homodimer: ~100 fold
[12]
  EC50: 0.033 nM

B3: soluble HRG-β1 EGF variant F1 (ligand)
chain: SHLVKCAEKEKTFCVNGGECFKVKDLSNPSRYLCKCPNEFTGDRCQNYVIAS
modifications: also: three disulfide bonds, pairing not given here
[5]
  EC50: 0.26 nM
[10]
  EC50: 0.6 nM

B4: soluble HRG-β1 EGF variant A3 (ligand)
chain: WELVPCAEKEKTFCVNGGECFMVKDLSNPSRYLCKCPNEFTGDRCQNYVMAS
modifications: also: three disulfide bonds, pairing not given here
[5]
  EC50: 2.1 nM
[10]
  EC50: 4.3 nM

B5: HRG2: HRG-β1 177-244 displayed on phage, fused to pIII 247 (ligand, phage M13)
chain: SHLVKCAEKEKTFCVNGGECFMVKDLSNPSRYLCKCPNEFTGDRCQNYVMASFYKHLGIEFMEAEELYGGSGGGSGSGDFDYEKMANANKGAMTENADENALQSDAKGKLDSVATDYGAAIDGFIGDVSGLANGNGATGDFAGSNSQMAQVGDGDNSPLMNNFRQYLPSLPQSVECRPFVFSAGKPYEFSIDCDKINLFRGVFAFLLYVATFMYVFSTFANILRNKES
notes: range 247-C-terminus; Monovalent phage display; also called pHRG2-g3
[13]
  EC50: 13 nM
[6]
  EC50: 6 nM
[14]
  EC50: 19 nM

B6: HRG11: HRG-β1 177-230 displayed on phage, GGGSGGG linker to pIII 247 (ligand, phage M13)
chain: SHLVKCAEKEKTFCVNGGECFMVKDLSNPSRYLCKCPNEFTGDRCQNYVMASFYGGGSGGGGGSGGGSGSGDFDYEKMANANKGAMTENADENALQSDAKGKLDSVATDYGAAIDGFIGDVSGLANGNGATGDFAGSNSQMAQVGDGDNSPLMNNFRQYLPSLPQSVECRPFVFSAGKPYEFSIDCDKINLFRGVFAFLLYVATFMYVFSTFANILRNKES
notes: range 247-C-terminus; Monovalent phage display; also called pHRG11-g3
[6]
  EC50: 19 nM

## SHLVKCAEKEKTFCVNGGECFMVKDYGYLMCKCPNEFTGDRCQNYVMAS (ligand, also: three disulfide bonds, pairing not given here) [soluble HRG-β1 EGF variant E2]
[5]
  EC50: 2.4 nM

## SHLVKCAEKEKTFCVNGGECYRVKTYGYLMCKCPNEFTGDRCQNYVIAS (ligand, also: three disulfide bonds, pairing not given here, also called D4+E2+M50I) [soluble HRG-β1 EGF combination variant HRG58]
[5]
  EC50: 0.3 nM
